Biological target: FRET substrate Dabcyl-[…]-E(Edans)-NH2 (SARS-CoV-2)
Assay: stopped-flow fluorescence kinetics (FRET signal of the Edans/Dabcyl peptide)

For “SARS-CoV-2 main protease, catalytically inactive mutant C145A (enzyme)”, the Ka was 1.6e+06 M⁻¹, the Kd was 0.6 µM and the koff was 0.18 s⁻¹. It also gave a kon of 280000 M⁻¹ s⁻¹.

Reference: paper PMC8686763, “Pre-Steady-State Kinetics of the SARS-CoV-2 Main Protease as a Powerful Tool for Antiviral Drug Discovery” (Frontiers in Pharmacology, 2021)
